The target of the assay is T1, human nerve growth factor (human, UniProt P01138 122-241, limits assumed).
T1 construct: also called human NGF; hNGF
Description: binding affinity measured with the Fab fragment; method not stated at this place (general BIAcore SPR protocol in paragraph 87); Fab, not IgG. As for the experimental part:
To obtain monofunctional Fab fragments, an antibody (for example, IgG) can be cleaved with papain or expressed recombinantly. […] The concentrations of the Fab proteins are determined by ELISA and/or SDS-PAGE electrophoresis using a Fab of known concentration (as determined by amino acid analysis) as a standard. […] Equilibrium dissociation constant (KD) values are calculated as koff/kₒₙ.
For orientation: In SPR one partner is held on a chip, and binding of the other changes the refractive index at the surface.

T1 sequence (P01138 122-241 limits assumed): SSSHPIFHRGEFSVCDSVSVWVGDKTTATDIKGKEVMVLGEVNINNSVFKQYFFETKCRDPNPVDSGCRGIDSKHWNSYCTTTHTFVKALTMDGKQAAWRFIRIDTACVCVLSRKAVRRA

B1: Fab fragment of humanized anti-NGF antibody E3 (Fab, V domains shown)
VH: QVQLQESGPGLVKPSETLSLTCTVSGFSLIGYDLNWIRQPPGKGLEWIGIIWGDGTTDYNSAVKSRVTISKDTSKNQFSLKLSSVTAADTAVYYCARGGYWYATSYYFDYWGQGTLVTVS
VL: DIQMTQSPSSLSASVGDRVTITCRASQSISNNLNWYQQKPGKAPKLLIYYTSRFHSGVPSRFSGSGSGTDFTFTISSLQPEDIATYYCQQEHTLPYTFGQGTKLEIK
notes: Full antibody E3 has a human IgG2a heavy chain constant region with A330P331 to S330S331 and a human kappa light chain constant region
What is called Kd is the concentration at which binding is half-saturated. Lower therefore signals a tighter complex. Turning to B1, the Kd was about 0.07 nM.

The record behind these values is patent publication US20120315271A1 (Pfizer, published 2012).
